Assay results from US10513713B2, “Modified host cells having tolerance to α-olefins” (priority 2014, dated 2019).
Residue numbers refer to the chain shown, from its start. Names and notes keep the numbering of the source.

Assays:
Assay type in all cases: cell-based
E. coli K12 [1] = assay: microbe, parasite or virus in culture; settings: Escherichia coli, K12, 2 h, read-out: toxic dose (concentration of compound that decreased growth by half)
Procedure: A: The olefin compounds were added to different concentrations as indicated to an E. coli K12 culture at an OD600=0.2. OD was monitored after 2 hour at 37° C. The bars represent standard deviation between duplicates B: A survival test in presence of 1-octene was performed. Six different dilutions of a culture (10 cells to 10^7 cells, left to right) of E. coli K12 were spotted in triplicate on an agar plate. […] Plates were incubated at room temperature for 2 days and then opened to allow evaporation of the olefin.
In this example, toxicity of olefin compounds was evaluated. A toxic dose was defined as the concentration of compound that decreased growth by half.

E. coli K12 [2] = assay: Survival test on agar plate with 1-octene overlay; settings: 2 days at room temperature, FIG. 1B
Procedure: FIG. 1. Impact of styrene, 1-hexene and 1-octene on cell growth. A: The olefin compounds were added to different concentrations as indicated to an E. coli K12 culture at an OD600=0.2. OD was monitored after 2 hour at 37° C. The bars represent standard deviation between duplicates B: A survival test in presence of 1-octene was performed. Six different dilutions of a culture (10 cells to 10^7 cells, left to right) of E. coli K12 were spotted in triplicate on an agar plate. An overlay of 1-octene was added over the cells (controls had no overlay). Plates were incubated at room temperature for 2 days and then opened to allow evaporation of the olefin.
For agar plate based assays, cells were first streaked overnight and few colonies were used to inoculate a preculture of 6 mL of LB-Cm with glucose (2 g/L) and arabinose (5 mM). At OD60=1 at 37° C., the cultures were used to prepare a dilution series. Dilution 0 (D0) corresponds to the OD600, =1, and contains ˜10^9 cells/mL. Dilution 1 (D1) is a 10-fold dilution of D0, dilution 2 (D2) a 10-fold dilution of D1 up to dilution 5 (D5), which contains ˜10^4 cells/mL. 10 μL of each dilution was spotted in triplicate on LB-agar plates (single well plates, Thermo Scientific, Waltham, Mass.) containing 30 mL of LB-agar, Cm (30 mg/L), glucose (2 g/L) and arabinose (5 mM). […]

E. coli K12 ΔacrAB [3] = assay: Survival assay on agar plate in olefin saturated atmosphere, strains producing AcrAB or AcrB variants
Procedure: (§1) FIG. 2: impact of AcrAB production on growth, in presence of styrene 1-hexene, 1-octene and 1-nonene on cell growth. A: Different concentrations of styrene were added to an OD600=0.2 culture of E. coli K12 ΔacrAB containing the pABc (white) or the control plasmid p0c (black). OD density was monitored after 2 hours of growth at 37° C. The bars represent standard deviation between duplicates. B: A survival test in presence of 1-hexene, 1-octene, or 1-nonene saturated atmosphere was performed. Six different dilutions of cultures (10 cells to 10^7 cells, left to right on the figure) were spotted in triplicate on an agar plates. Plates were then exposed to the aforementioned chemicals.
FIG. 4: Impact of beneficial mutations on AcrB on tolerance to 1-hexene, A: Survival test of E. coli strain producing either the AcrB wild type or variants in a 1-hexene saturated atmosphere was performed. Two dilutions of cultures (Dilution 1: 10^5 cells and Dilution 2: 10^4 cells) were spotted in triplicate on an agar plate. B: Localization of the 6 beneficial mutations represented on the structure of a single monomer of AcrB or C: on the structure of the AcrB trimer.
FIG. 6: Impact of beneficial mutations on AcrB on tolerance to 1-hexene. A: Survival test of E. coli strain producing either the AcrB Wild type or variants with 1, 2 or several beneficial mutations, in an 1-hexene saturated atmosphere was performed. Two dilutions of cultures (Dilution 2: 10^4 cells and Dilution 3: 10^3 cells) were spotted in triplicate on an agar plate. B: Soluble fraction of total proteins from a culture of strains producing either the wild type, either the variant F617L, either the variant 6 (A279T, Q584R, F617L) were analyzed by western blot using anti-His antibody.
For agar plate based assays, cells were first streaked overnight and few colonies were used to inoculate a preculture of 6 mL of LB-Cm with glucose (2 g/L) and arabinose (5 mM). At OD60=1 at 37° C., the cultures were used to prepare a dilution series. Dilution 0 (D0) corresponds to the OD600, =1, and contains ˜10^9 cells/mL. Dilution 1 (D1) is a 10-fold dilution of D0, dilution 2 (D2) a 10-fold dilution of D1 up to dilution 5 (D5), which contains ˜10^4 cells/mL. 10 μL of each dilution was spotted in triplicate on LB-agar plates (single well plates, Thermo Scientific, Waltham, Mass.) containing 30 mL of LB-agar, Cm (30 mg/L), glucose (2 g/L) and arabinose (5 mM). Small containers (microfuge tube lids) were placed on the open lid of the agar plate and filled with 400 to 600 μL of 1-hexene or 1-octene or with 75 μL of 1-nonene. The agar plates were then inverted over the lid, cells facing the olefin compound, sealed with parafilm, placed in the plastic bag (the original packaging for the petri dishes) and incubated for 2 days at room temperature. For 1-octene, a second condition, via overlaying 2 mL of compound on the top of the agar submerging the cells, was used. TolC overexpression impact was examined using the same method, but in this case, the LB media and the LB-agar were also supplemented with ampicillin (100 mg/L) and IPTG (100 μM). […]

E. coli K12 ΔacrAB [4] = assay: Growth in liquid culture with 1-hexene, styrene or bile salts, strains producing AcrAB or AcrB variants
Procedure: as §1
FIG. 5: Impact of beneficial AcrB mutations on growth, in presence of 1-hexene and styrene. Different concentrations of 1-hexene (A), styrene (B), or bile salts (C) were added to an OD600=0.2 culture of E. Coli K12 ΔacrAB containing either the AcrB wild type (pABc) or the AcrB variants. OD densities were monitored after 2 hours of culture at 37° C. The bars represent standard deviation between duplicates.
Cells were first inoculated in 6 mL LB-Cm with glucose (2 g/L) and arabinose (5 mM). […] After 2 hours at 37° C., OD600 was measured. […]

E. coli K12 wild type = assay: Survival test in 1-hexene saturated atmosphere on over-production of AcrA, AcrB and TolC; settings: FIG. 3
Procedure: Six different dilutions of cultures (10 cells to 10^7 cells, left to right on the picture) were spotted in triplicate on an agar plate.
For agar plate based assays, cells were first streaked overnight and few colonies were used to inoculate a preculture of 6 mL of LB-Cm with glucose (2 g/L) and arabinose (5 mM). At OD60=1 at 37° C., the cultures were used to prepare a dilution series. Dilution 0 (D0) corresponds to the OD600, =1, and contains ˜10^9 cells/mL. Dilution 1 (D1) is a 10-fold dilution of D0, dilution 2 (D2) a 10-fold dilution of D1 up to dilution 5 (D5), which contains ˜10^4 cells/mL. 10 μL of each dilution was spotted in triplicate on LB-agar plates (single well plates, Thermo Scientific, Waltham, Mass.) containing 30 mL of LB-agar, Cm (30 mg/L), glucose (2 g/L) and arabinose (5 mM). […] The agar plates were then inverted over the lid, cells facing the olefin compound, sealed with parafilm, placed in the plastic bag (the original packaging for the petri dishes) and incubated for 2 days at room temperature. For 1-octene, a second condition, via overlaying 2 mL of compound on the top of the agar submerging the cells, was used. TolC overexpression impact was examined using the same method, but in this case, the LB media and the LB-agar were also supplemented with ampicillin (100 mg/L) and IPTG (100 μM).

Molecule: C=CCCCCCC [1-octene]
- IC50 (E. coli K12 [1]): > 1000 µg/mL
- toxicity relative to the other olefins tested (E. coli K12 [2]): less toxic

B1: AcrA and AcrB: plasmid-borne wild type acrA and acrB in an operon under an arabinose inducible promoter (pABc) (protein, UniProt P0AE06 25-397; P31224 1-1049, looked up)
Multidrug efflux pump subunit … 1: CDDKQAQQGGQQMPAVGVVTVKTEPLQITTELPGRTSAYRIAEVRPQVSGIILKRNFKEGSDIEAGVSLYQIDPATYQATYDSAKGDLAKAQAAANIAQLTVNRYQKLLGTQYISKQEYDQALADAQQANAAVTAAKAAVETARINLAYTKVTSPISGRIGKSNVTEGALVQNGQATALATVQQLDPIYVDVTQSSNDFLRLKQELANGTLKQENGKAKVSLITSDGIKFPQDGTLEFSDVTVDQTTGSITLRAIFPNPDHTLLPGMFVRARLEEGLNPNAILVPQQGVTRTPRGDATVLVVGADDKVETRPIVASQAIGDKWLVTEGLKAGDRVVISGLQKVRPGVQVKAQEVTADNNQQAASGAQPEQSKS
Multidrug efflux pump subunit … 2: MPNFFIDRPIFAWVIAIIIMLAGGLAILKLPVAQYPTIAPPAVTISASYPGADAKTVQDTVTQVIEQNMNGIDNLMYMSSNSDSTGTVQITLTFESGTDADIAQVQVQNKLQLAMPLLPQEVQQQGVSVEKSSSSFLMVVGVINTDGTMTQEDISDYVAANMKDAISRTSGVGDVQLFGSQYAMRIWMNPNELNKFQLTPVDVITAIKAQNAQVAAGQLGGTPPVKGQQLNASIIAQTRLTSTEEFGKILLKVNQDGSRVLLRDVAKIELGGENYDIIAEFNGQPASGLGIKLATGANALDTAAAIRAELAKMEPFFPSGLKIVYPYDTTPFVKISIHEVVKTLVEAIILVFLVMYLFLQNFRATLIPTIAVPVVLLGTFAVLAAFGFSINTLTMFGMVLAIGLLVDDAIVVVENVERVMAEEGLPPKEATRKSMGQIQGALVGIAMVLSAVFVPMAFFGGSTGAIYRQFSITIVSAMALSVLVALILTPALCATMLKPIAKGDHGEGKKGFFGWFNRMFEKSTHHYTDSVGGILRSTGRYLVLYLIIVVGMAYLFVRLPSSFLPDEDQGVFMTMVQLPAGATQERTQKVLNEVTHYYLTKEKNNVESVFAVNGFGFAGRGQNTGIAFVSLKDWADRPGEENKVEAITMRATRAFSQIKDAMVFAFNLPAIVELGTATGFDFELIDQAGLGHEKLTQARNQLLAEAAKHPDMLTSVRPNGLEDTPQFKIDIDQEKAQALGVSINDINTTLGAAWGGSYVNDFIDRGRVKKVYVMSEAKYRMLPDDIGDWYVRAADGQMVPFSAFSSSRWEYGSPRLERYNGLPSMEILGQAAPGKSTGEAMELMEQLASKLPTGVGYDWTGMSYQERLSGNQAPSLYAISLIVVFLCLAALYESWSIPFSVMLVVPLGVIGALLAATFRGLTNDVYFQVGLLTTIGLSAKNAILIVEFAKDLMDKEGKGLIEATLDAVRMRLRPILMTSLAFILGVMPLVISTGAGSGAQNAVGTGVMGGMVTATVLAIFFVPVFFVVVRRRFSRKNEDIEHSHTVDHH
- survival and growth in 1-hexene, 1-octene and 1-nonene (E. coli K12 ΔacrAB [3]; pump expression vs control plasmid, saturated atmosphere, FIG. 2B): strong advantage
- survival in the presence of styrene compared to control plasmid (E. coli K12 ΔacrAB [4]; pABc vs p0c, styrene, FIG. 2A): enhanced survival
- tolerance to 1-hexene on over-expression in the wild type strain (E. coli K12 wild type): greater than the wild type

B2: Q584R: E. coli AcrB (SEQ ID NO:1) variant with amino acid mutation Q584R (protein)
chain: B1 Multidrug efflux pump subunit … 2 with Q584R
modifications: E. coli
- efficiency among the beneficial mutations (E. coli K12 ΔacrAB [3]; 1-hexene saturated atmosphere): more efficient
- tolerance to 1-hexene relative to wild type AcrB sequence (E. coli K12 ΔacrAB [3]; single mutation AcrB variants, 1-hexene saturated atmosphere, FIG. 4A): improvement in tolerance
- growth of the strain in presence of bile salts (E. coli K12 ΔacrAB [4]; bile salts, FIG. 5C): improved the growth
